Assay [1] has as its target DENV抗原 (DENV阳性血清) (dengue virus (DENV), serotype not stated). Description: sandwich ELISA, antibody at 0 ng/ml (blank without antibody), goat anti-mouse IgG, DENV-positive serum, HRP-labelled DENV mAb. For orientation: In an ELISA, binding on a coated surface is turned into a signal by an enzyme label.
Assay [2] has the same target. Description: sandwich ELISA, antibody at 3.125 ng/ml captured on goat anti-mouse IgG, DENV-positive serum, HRP-labelled DENV mAb.
Assay [3] has the same target. Description: sandwich ELISA, antibody at 0.78125 ng/ml captured on goat anti-mouse IgG, DENV-positive serum, HRP-labelled DENV mAb.
The target is the same in assay [4]. In words: sandwich ELISA, antibody at 6.25 ng/ml captured on goat anti-mouse IgG, DENV-positive serum, HRP-labelled DENV mAb.
Assay [5] has the same target. In words: sandwich ELISA, antibody at 1.5625 ng/ml captured on goat anti-mouse IgG, DENV-positive serum, HRP-labelled DENV mAb.
For assay [6] the target is unchanged. Description: sandwich ELISA, antibody at 12.5 ng/ml captured on goat anti-mouse IgG, DENV-positive serum, HRP-labelled DENV mAb.
Assay [7] has as its target DENV-IV抗原(一种NS1蛋白，购自菲鹏) (dengue virus serotype 4 (DENV-IV)) (UniProt P09866).

The values that follow come from patent CN116082499A.

Chain of UniProt P09866 (P09866 775-1126 limits assumed): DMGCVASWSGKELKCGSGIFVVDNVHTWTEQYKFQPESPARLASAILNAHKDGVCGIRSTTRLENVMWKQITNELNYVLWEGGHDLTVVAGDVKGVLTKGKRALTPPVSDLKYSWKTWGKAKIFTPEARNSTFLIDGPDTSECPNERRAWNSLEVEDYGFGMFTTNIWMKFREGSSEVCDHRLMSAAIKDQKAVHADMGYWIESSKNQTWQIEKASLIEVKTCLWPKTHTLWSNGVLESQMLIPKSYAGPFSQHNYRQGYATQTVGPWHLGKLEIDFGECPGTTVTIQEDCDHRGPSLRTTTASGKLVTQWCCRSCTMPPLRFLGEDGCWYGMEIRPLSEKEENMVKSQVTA

On to 对照抗体 (antibody), for which the OD (450nm, 参考630nm) in assay [1] amounted to 0.045 OD; in assay [2], 0.692 OD; in assay [3], 0.317 OD; in assay [4] it was 0.996 OD; in assay [5], 0.48 OD; in assay [6] it was 1.54 OD. In addition, in assay [7], the Kd stood at 0.811 µM. This substance also came in with a koff in assay [7] of 0.0019 s⁻¹. Moreover, the association rate constant (kon) in assay [7] worked out at 2340 M⁻¹ s⁻¹.

For orientation: Kd means the concentration at which binding is half-saturated. High values mean weaker binding, low ones tighter binding. As usually defined, the koff is the rate constant with which the complex falls apart. Read a low koff as a long-lived complex. A word on the kon: it is the rate constant with which the complex forms. High values mean fast association, low ones slow association.
